This note sets out measurements from US8188039 (ARK THERAPEUTICS GROUP, dated 2012).

This data set concerns the molecule itself. Nature of the data set: homodimer formation, SDS-PAGE on non-reducing conditions. As for the experimental part: Purified proteins were analyzed by SDS-PAGE in both denaturing and non-denaturing conditions, staining the gels with Silver Snap Stain KitII (Pierce) or Page Blue Protein Staining Solution (Fermentas). Alternatively, proteins were transferred to nitrocellulose membrane and detected using a VEGF-D monoclonal antibody (MAB286, R&D Systems).
Covalent dimer formation: The ability of VEGF-$D^{\Delta N \Delta C}$, VEGF-$D^{\Delta N \Delta C}$25A and VEGF-$D^{\Delta N \Delta C}$53A to form covalent dimers was evaluated by SDS-PAGE on non-reducing conditions. […] As expected, covalent dimer formation of VEGF-$D^{\Delta N \Delta C}$53A was hindered.

B1: VEGF-D^ΔNΔC (ligand, not shown: small tags and cut ends)
chain: FYDIETLKVIDEEWQRTQCSPRETCVEVASELGKSTNTFFKPPCVNVFRCGGCCNEESLICMNTSTSYISKQLFEISVPLTSVPELVPVKVANHTGCKCLPTAPRHPYSHHHHHH
notes: Amino acids 93-201 of wild-type VEGF-D with N-terminal Flag-tag and C-terminal 6xHis; found partially as a covalent dimer, otherwise non-covalent dimer or monomer; also called mature form of VEGF-D; native VEGF-D^ΔNΔC
Consider B1, for which the binding result is listed as “binds”.

B2: VEGF-D^ΔNΔC25A (ligand, not shown: small tags and cut ends)
chain: FYDIETLKVIDEEWQRTQCSPRETAVEVASELGKSTNTFFKPPCVNVFRCGGCCNEESLICMNTSTSYISKQLFEISVPLTSVPELVPVKVANHTGCKCLPTAPRHPYSHHHHHH
notes: Formed more covalent dimer than the native form; also called Cys25 to Ala mutant of VEGF-D^ΔNΔC
Take B2: the binding result was “binds”.
